Measured values taken from the supplement of paper PMC11865577.

The sequences below were run on TO-3-N3-2 (biotin conjugate) (assay: pull-down binding Z-score (relative to library population); higher = stronger binding). Conditions: RNA library: Library-2.
Summary of the method: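 Cy5- or Cy3-end-labelled RNA library (1 μg) was heat-folded in phosphate/NaCl/KCl buffer and incubated 60 min at 25 °C with streptavidin beads carrying 100 pmol biotin-conjugated small molecule. After three washes, bound RNA was eluted in hot SDS and hybridised 20 h at 55.5 °C to a DNA barcode microarray. Binding was scored by subtracting a beads-only control, averaging barcoded replicate probes after dropping highest and lowest, and converting to a Z-score against library mean and standard deviation.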
GGUUCACUAUAUGUUAAACCAGGUGGAACC was tested, and the “pull-down binding Z-score” value was 0.221.
GGUUCGUGUCUUUAGCUAUAGAUGCUUACC was tested, and the “pull-down binding Z-score” value was 0.206.
GGUUGGGAAAUUGUUAAAUUUAUCUCAACC was tested, and the “pull-down binding Z-score” value was -0.155.
For “GGUUGGGAGAAGAGCAACAGCC [IAV_invivo_PB2_1_Motif_16+IAV_invivo_PB2_1_Motif_16]”, the “pull-down binding Z-score” value was 0.479.
GGUUGUAUGGUACAAGUAACUUGUGGUACAACU was tested, and the “pull-down binding Z-score” value was -0.128.
With “GGUUUAACUUCUAUUAAAUGGGCAGAUAACAACUGUUAUCUUGCCACUGCAUUGUUAACACUCCAACAAAUAGAGUUGAAGUUUAAUCC” the “pull-down binding Z-score” value was -0.273.
For “GGUUUAGCUGCUGUUAAUAGUGUCCCUUGGGAUACUAUAGCUAAUUAUGCUAAGCC”, the “pull-down binding Z-score” value was -0.323.
GGUUUAUACCUUCCCAGGUAACAAACC was tested, and the “pull-down binding Z-score” value was -0.582.
With “GGUUUGUUACAGACACACC [SHAPE_invivo_SARS-CoV-2_Motif_243]” the “pull-down binding Z-score” value was -0.488.
In the case of “GGUUUGUUGCC [IAV_invivo_PB1_2_Motif_26+IAV_invivo_PB1_2_Motif_26]”, the “pull-down binding Z-score” value is reported as -0.261.
For “GGUUUUAUAGCUGGCUUGAUUGCCAUAGUAAUGGUGACAAUUAUGCUUUGCUGUAUGACC”, the “pull-down binding Z-score” value was -0.541.
In the case of “GUAAAUUUACUUAC [DMSMaPseq_invitro_SARS-CoV-2_Motif_170]”, the “pull-down binding Z-score” value is reported as -0.105.
With GUAAGAGAAUUCCUUAC the “pull-down binding Z-score” value was -0.0559.
In the case of “GUAAUGAUCCAUUUUUGGGUGUUUAUUAC [DMSMaPseq_invitro_SARS-CoV-2_Motif_387]”, the “pull-down binding Z-score” value is reported as -0.129.
“GUACAUACAGCUAAUAAAUGGGAUCUCAUUAUUAGUGAUAUGUAC” was tested, and the “pull-down binding Z-score” value was -0.167.
With “GUACAUGGGCACACUUUCUUAUGAACAAUUUAAGAAAGGUGUUCAGAUAC [DMSMaPseq_invitro_SARS-CoV-2_Motif_106]” the “pull-down binding Z-score” value was 0.0305.
For “GUACAUGGGCACACUUUCUUAUGAACAAUUUAAGAAAGGUGUUCAGAUACCUUGUAC [SHAPE_invitro_SARS-CoV-2_Motif_110]”, the “pull-down binding Z-score” value was -0.44.
In the case of “GUACCAAAGGUGC [IAV_invivo_PB1_2_Motif_35+IAV_invivo_PB1_2_Motif_35]”, the “pull-down binding Z-score” value is reported as -0.26.
“GUACCUCAAGCUGAUGUAGAAUGGAAGUUCUAUGAUGCACAGCCUUGUAGUGAC [SHAPE_invitro_SARS-CoV-2_Motif_348]” was tested, and the “pull-down binding Z-score” value was -0.203.
“GUACGAUCGAGUGUAC [DMSMaPseq_invitro_SARS-CoV-2_Motif_538]” was tested, and the “pull-down binding Z-score” value was -0.222.
For “GUACUUAAUGAGAAGUGC [SHAPE_invivo_SARS-CoV-2_Motif_56]”, the “pull-down binding Z-score” value was -0.138.
GUACUUGGUAGUUUAGCUGCCACAGUAC was tested, and the “pull-down binding Z-score” value was -0.291.
With “GUAGACAAUUCUAGUCUUAC [SHAPE_invitro_SARS-CoV-2_Motif_131]” the “pull-down binding Z-score” value was -0.243.
“GUAGAGGAGGCAAAGACAGUGCUUAAAAAGUGUAAAAGUGCCUUUUAC” was tested, and the “pull-down binding Z-score” value was 0.448.
In the case of GUAUCUGAAUUAC, the “pull-down binding Z-score” value is reported as -0.196.
With “GUAUGAGCAGUAUAU [DMSMaPseq_invitro_SARS-CoV-2_Motif_451]” the “pull-down binding Z-score” value was -0.295.
With “GUCAAAGUGAC [SHAPE_invivo_SARS-CoV-2_Motif_385]” the “pull-down binding Z-score” value was -0.543.
For “GUCAAAGUGACUAUUGAC [SHAPE_invitro_SARS-CoV-2_Motif_373]”, the “pull-down binding Z-score” value was -0.444.
In the case of GUCACACCUUCGGGAACGUGGUUGAC, the “pull-down binding Z-score” value is reported as -0.338.
In the case of “GUCAGUGAAACACAGGGAACAGAGAAACUGAC [IAV_invivo_PB2_1_Motif_24+IAV_invivo_PB2_1_Motif_24]”, the “pull-down binding Z-score” value is reported as 0.282.
For “GUCCUAAAGUGAAGUAUUUAUACUUUAUUAAAGGAU [SHAPE_invivo_SARS-CoV-2_Motif_244]”, the “pull-down binding Z-score” value was -0.605.
With GUCCUAUUACGGAU the “pull-down binding Z-score” value was -0.505.
With “GUCGCUACAGGAUUGGCAACUAUAAAUUAAACACAGACCAUUCCAGUAGCAGUGAC [SHAPE_invitro_SARS-CoV-2_Motif_494]” the “pull-down binding Z-score” value was 0.215.
In the case of “GUCGUUGACAGGACACGAGUAACUCGUCUAUCUUCUGCAGGCUGC [SARS-CoV-2-Conserved-Structured-34_Interval-80-197_Motif_3]”, the “pull-down binding Z-score” value is reported as 0.148.
For GUCUAAUCUCAAACCUUUUGAGAGAGAU, the “pull-down binding Z-score” value was -0.695.
In the case of “GUCUAGCUGUCCACGAGUGCUUUGUUAAGCGUGUUGACUGGAC”, the “pull-down binding Z-score” value is reported as -0.348.
With “GUCUCCUACUAAAUUAAAUGAUCUCUGCUUUACUAAUGUCUAUGCAGAUUCAUUUGUAAUUAGAGGUGAU” the “pull-down binding Z-score” value was -0.285.
“GUCUCGCACCCGCGAGAU [IAV_invivo_PB2_1_Motif_2+IAV_invivo_PB2_1_Motif_2]” was tested, and the “pull-down binding Z-score” value was -0.362.
For GUCUCUAUAGAAAUAGAGAU, the “pull-down binding Z-score” value was -0.397.
With “GUCUCUGAAGAAGUAGUGGAAAAUCCUACCAUACAGAAAGAC” the “pull-down binding Z-score” value was 0.0814.
With “GUCUGAUAAUGGACCCCAAAAUCAGCGAAAUGCACCCCGCAUUACGUUUGGUGGACCCUCAGAU” the “pull-down binding Z-score” value was -0.237.
“GUCUGGGAUCAACGAGUCAGCGGAC [IAV_invivo_PB1_2_Motif_28+IAV_invivo_PB1_2_Motif_28]” was tested, and the “pull-down binding Z-score” value was -0.51.
“GUCUGGUAGUCGGAC [IAV_invivo_NA_6_Motif_1+IAV_invivo_NA_6_Motif_1]” was tested, and the “pull-down binding Z-score” value was -0.235.
“GUCUUACACCGUGCGGCACAGGCACUAGUACUGAUGUCGUAUACAGGGCUUUUGAC [DMSMaPseq_invitro_SARS-CoV-2_Motif_242]” was tested, and the “pull-down binding Z-score” value was 0.0142.
With “GUCUUUCCAGGGGC [IAV_invivo_NP_5_Motif_23+IAV_invivo_NP_5_Motif_23]” the “pull-down binding Z-score” value was -0.414.
With “GUGAAACAUUUGUCAC [SHAPE_invivo_SARS-CoV-2_Motif_46]” the “pull-down binding Z-score” value was 0.013.
For GUGAAGAAUCAU, the “pull-down binding Z-score” value was -0.146.
With “GUGAAUUCAACAU [DMSMaPseq_invitro_SARS-CoV-2_Motif_308]” the “pull-down binding Z-score” value was -0.213.
With “GUGAGAGAGAGCCGGAACCCAGGGAAUGCUGAGUUCGAAGAUCUCAC [IAV_invivo_NP_5_Motif_14+IAV_invivo_NP_5_Motif_14]” the “pull-down binding Z-score” value was 0.125.
With “GUGAUAGAGCCAUGCCUAACAUGCUUAGAAUUAUGGCCUCAC” the “pull-down binding Z-score” value was 0.0068.
With “GUGAUGAACUGAAGAUUAAUGCGGCUUGUAGAAAGGUUCAACACAUGGUUGUUAAAGCUGCAUUAUUAGCAGACAAAUUCCCAGUUCUUCAC” the “pull-down binding Z-score” value was 0.69.
With “GUGCACUUGACCCUCUCUCAGAAACAAAGUGUAC [SHAPE_invivo_SARS-CoV-2_Motif_422]” the “pull-down binding Z-score” value was -0.137.
“GUGCAGAAUGAAUUCUCGUAACUACAUAGCACAAGUAGAUGUAGUUAACUUUAAUCUCAC” was tested, and the “pull-down binding Z-score” value was -0.202.
GUGCCACUCCAUGGCAC was tested, and the “pull-down binding Z-score” value was -0.276.
In the case of “GUGCCAGCACAAAAUGCUAUAAGCAC [IAV_invivo_PB1_2_Motif_3+IAV_invivo_PB1_2_Motif_3]”, the “pull-down binding Z-score” value is reported as -0.201.
In the case of “GUGCCAUCAAAUUGGAUGACAAAGAUCCAAAUUUCAAAGAUCAAGUCAUUUUGCUGAAUAAGCAUAUUGACGCAU”, the “pull-down binding Z-score” value is reported as -0.165.
“GUGCCCAAAAUACGUCAGGAGUGC [IAV_invivo_HA_4_Motif_13+IAV_invivo_HA_4_Motif_13]” was tested, and the “pull-down binding Z-score” value was 0.129.
With “GUGCCUGGAAUAUUGGUGAACAGAAAUCAAUACUGAGUCCUCUUUAUGCAUUUGCAUCAGAGGCUGCUCGUGUUGUACGAUCAAUUUUCUCCCGCAC [SHAPE_invivo_SARS-CoV-2_Motif_37]” the “pull-down binding Z-score” value was -0.0608.
In the case of “GUGCGGCACAGGCACUAGUACUGAUGUCGUAU [SHAPE_invitro_SARS-CoV-2_Motif_246]”, the “pull-down binding Z-score” value is reported as 0.0228.
For “GUGCGUAUAAAGAUUGUACAAAUGUUAAGUGACACACUUAAAAAUCUCUCUGACAGAGUCGUAUUUGUCUUAUGGGCAC [DMSMaPseq_invitro_SARS-CoV-2_Multi_54_ComplexLevel_1]”, the “pull-down binding Z-score” value was -0.29.
For GUGCUAAGCAC, the “pull-down binding Z-score” value was -0.435.
“GUGCUAAUGACCCUGUGGGUUUUACAC [SHAPE_invivo_SARS-CoV-2_Motif_252]” was tested, and the “pull-down binding Z-score” value was -0.275.
For “GUGCUUGGGACAUUUGAUACCGCAC [IAV_invivo_PB2_1_Motif_30+IAV_invivo_PB2_1_Motif_30]”, the “pull-down binding Z-score” value was -0.147.
With GUGGAUGGUUAUGUUCAC the “pull-down binding Z-score” value was -0.266.
With GUGGCACUGAGAAUUUGACUAAAGAAGGUGCCAC the “pull-down binding Z-score” value was 0.147.
For GUGGCCCUGAUGGCUAC, the “pull-down binding Z-score” value was -0.622.
For “GUGGCUAAAUCUGAAUUUGACCGUGAUGCAGCCAU [DMSMaPseq_invitro_SARS-CoV-2_Motif_214]”, the “pull-down binding Z-score” value was -0.199.
With “GUGGGGUAUUCAUCACCCGC [IAV_invivo_HA_4_Motif_9+IAV_invivo_HA_4_Motif_9]” the “pull-down binding Z-score” value was 0.689.
With “GUGGUAGUUAUACUAAUGACAAAGCUUGCCCAUUGAUUGCUGC [DMSMaPseq_invitro_SARS-CoV-2_Motif_161]” the “pull-down binding Z-score” value was 0.207.
